Data reported in article PMC9703590 (Protein Science : A Publication of the Protein Society, 2022).
Where two headings read alike, the source gives them in different places.

Legend:
AncCDT‐5 (A5) = assay: discontinuous colorimetric assay of phenylpyruvate formation; assay type: biochemical, synthetic construct; conditions: 25°C, 50 mM Na2HPO4 substrate buffer, 100 nM enzyme
SEC-MALS = target: the molecule itself; assay: SEC-MALS
[1] = target: the molecule itself

Row | Molecule | stoichiometry N (SEC-MALS) | other results
1 | O=C(O)C(=O)CC1(C(=O)O)C=CC(O)C=C1 (stereo not shown) [prephenate] | – | Km (AncCDT‐5 (A5)): 81.2 ± 26.3 µM
2 | PaCDTΔC (C-terminal-truncated PaCDT) (enzyme, Pseudomonas aeruginosa, UniProt Q01269 26-259, looked up) QESRLDRILESGVLRVATTGDYKPFSYRTEEGGYAGFDVDMAQRLAESLGAKLVVVPTSWPNLMRDFADDRFDIAMSGISINLERQRQAYFSIPYLRDGKTPITLCSEEARFQTLEQIDQPGVTAIVNPGGTNEKFARANLKKARILVHPDNVTIFQQIVDGKADLMMTDAIEARLQSRLHPELCAVHPQQPFDFAEKAYLLPRDEAFKRYVDQWLHIAEQSGLLRQRMEHWLE | 3 | –
3 | Ws0279 (natural protein) QKSTLNEIIKRGELRVGLEPGYLPFEMKDKKGNVIGFDVDLAREMAKAMGVKLKLVPTSWDGLIPGLVTEKFDIIISGMTISQERNLRVNFVEPYIVVGQSLLVKKGLEKGVKSYKDLDKPELTLVTKFGVSAEYAAKRLFKNAKLKTYDTEAEAVQEVLNGKADMFIFDLPFNVAFMAQKGQGYLVHLDTSLTYEPLGWAIKKGDPDFLNWLNHFLAQIKHDGSYDELYERWFVL | – | stoichiometry N [1]: 3
4 | Cyclohexadienyl dehydratase from Pseudomonas aeruginosa (PaCDT) (enzyme, UniProt Q01269 26-268, looked up) QESRLDRILESGVLRVATTGDYKPFSYRTEEGGYAGFDVDMAQRLAESLGAKLVVVPTSWPNLMRDFADDRFDIAMSGISINLERQRQAYFSIPYLRDGKTPITLCSEEARFQTLEQIDQPGVTAIVNPGGTNEKFARANLKKARILVHPDNVTIFQQIVDGKADLMMTDAIEARLQSRLHPELCAVHPQQPFDFAEKAYLLPRDEAFKRYVDQWLHIAEQSGLLRQRMEHWLEYRWPTAHGK | 3 | –
